{"source": "patent US20140370024A1", "about": "(IMPERIAL INNOVATIONS, published 2014)", "binders": {"B1": {"name": "Sulfo-EMCS cross-linker-conjugated biotinylated TLQP-21 (peptide)", "peptide": "TLQPPASSRRRHFHHALPPARC", "modifications": "biotin covalently attached via the amide bond at the N-terminus; Sulfo-EMCS cross-linker conjugated via the sulphydryl group of the extra cysteine at the C-terminus", "notes": "Used for chemical cross-linking to rat membrane fractions; also called crosslinker-conjugated TLQP-21; Sulfo-EMCS-conjugated TLQP-21"}}, "molecular_target": "T1, gC1qR, the receptor of the globular part of the complement protein C1q, from rat brain membrane fractions (rat, UniProt O35796 72-279)", "T1 construct": "also called ~30 kDa band", "T1 sequence (looked up)": "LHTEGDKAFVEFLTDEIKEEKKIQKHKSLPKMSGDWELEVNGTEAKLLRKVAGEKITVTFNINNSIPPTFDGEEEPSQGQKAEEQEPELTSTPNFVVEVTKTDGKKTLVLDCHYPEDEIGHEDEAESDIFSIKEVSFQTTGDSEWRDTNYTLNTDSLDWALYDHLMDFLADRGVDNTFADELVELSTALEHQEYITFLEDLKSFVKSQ", "experiment": "chemical cross-linking to rat brain membrane fraction, Tricine-PAGE, Western blot with streptavidin-HRP; band identified as gC1q-R by LC-MS/MS", "protocol": "The reaction was terminated using 50 mM Tris buffer, and samples were ethanol precipitated and resolved using Tricine-PAGE and visualised by Western blot analysis by streptavidin-horse radish peroxidase. A clear band at ˜30 kDa (indicated by an arrow) was observed following chemical crosslinking using biotinylated TLQP-21., which was many orders of magnitude greater than the corresponding band in the membrane control lane using unconjugated Sulfo-EMCS cross-linker. b, Membrane fractions of P4 rat brain was applied to either monomeric avidin column attached with TLQP-21 or monomeric avidin column only (“Negative control”). Following considerable washes, proteins bound to the columns were eluted and resolved on SDS-PAGE, followed by silver staining. A ˜30 kDa band (arrow) was apparent in the elutant from the TLQP-21-attached column. C, The ˜30 kDa band was analysed by LC-MS/MS Orbitrap following trypsinisation.\nCcl11 has been linked to inflammation²³, while Cxcl9 is known as a natural antagonist to Ccl11 receptor CCR3²⁴. We then used Sulfo-EMCS-conjugated TLQP-21 to purify and identify receptor(s) for TLQP-21. […] The membrane fractions of rat brain was incubated with the crosslinker-conjugated TLQP-21, and analysed by Tricine-PAGE and Western blotting using Streptavidin-HRP for the biotin tag on TLQP-21."}
{"binder": "B1", "values": [{"measurement": "binding result", "value": "binds"}]}
